{"source": "patent US6328728A", "about": "“Composition and method for enhancing electrotransport agent delivery” (Alza Corporation, priority 1997, dated 2001)", "assay": "Hydrophobicity by hydrophobic interaction chromatography (HIC), phenyl Superose column (retention time, ta/tm)", "format": "physicochemical", "conditions": "for HIC Retention Time / HIC Column Retention Time: 32° C.; for HIC Column Retention Time: pH 5.0, 4 mM piperazine-HCl", "description": "The hydrophobicity of an agent (eg, an agent such as a polypeptide or protein in solution, as well as the relative increase or decrease thereof) is determined by passing the agent-containing solution through a chromatography column filled with a particular \"hydrophobic interaction\" bead material and measuring either (1) the time required for the agent to elute (ie, pass through) the column or (2) the volume of liquid (ie, the same liquid used in the agent-containing sample, but with the agent removed) required to be pumped through the column in order to elute the agent. For the purposes of the present invention, the hydrophobicity of an agent is defined in terms relative to the marker compound, N-acetyl tryptophanamide (sold by Sigma Chemical, St. Louis, Mo.), which has a somewhat moderate hydrophobicity. Hydrophobicity, as that term is used herein, is measured using a 5 mm diameter glass column having a length of 5 cm (ie, column volume of 1.0 mL) and packed with cross-linked agar beads having an average particle size of 13.5 μm. Examples of suitable hydrophobic bead materials include cross-linked agar gel beads (Superose 12) having hydrophobic ligands attached to the agar via chemically stable ether linkages ((Superose 12)--O--CH2 --CHOH--CH2 --O--R) such as alkyl-Superose wherein R is --CH2 --C(CH3)3 and phenyl-Superose wherein R is phenyl, both of which are sold in pre-packaged column form by Pharmacia Biotech, Inc. of Piscataway, N.J. Immediately downstream from the column is placed a flow cell which permits continuous UV absorbance measurements of the solution flowing out of the column. Suitable flow cells and UV absorbance detectors are sold by Perkin-Elmer Corp., Applied Biosystems, Foster City, Calif. Hydrophobicity measurements are conducted at 32° C. with the same buffer that is used in the electrotransport system which is used to deliver the agent (eg, transdermally) to the patient. The buffer strength used in the hydrophobicity measurements is 10 mM ionic strength. The term \"certain hydrophobicity\" as used herein, means that the time required for the agent to elute from the column, relative to the time required for N-acetyl tryptophanamide to elute, is as follows:\nta /tm >0.7, and preferably ta /tm >3\nta is the time at which the peak UV absorbance value is recorded for the beneficial agent in the flow cell, less the time required to initially fill the column with the agent-containing solution (ie, dead volume retention time); and\ntm is the time at which the peak UV absorbance value is recorded for the N-acetyl tryptophanamide marker in the flow cell, less the time required to initially fill the column with the marker-containing solution (ie, dead volume retention time).\nThe above described measurement of agent hydrophobicity is substantially independent of column size and flow rate through the column.\nOne method of measuring the hydrophobicity of an agent such as a polypeptide or protein is by hydrophobic interaction chromatography (HIC). The principles and conditions associated with HIC are fully described in Protein Purification: Principles, High Resolution Methods, and Applications, Janson and Ryden, Eds., pp. 207-226 (1989), the pertinent portions of which are incorporated herein by reference. This method requires passing a composition through a hydrophobic interaction column and measuring the volume of solvent required for its complete elution. The hydrophobic sites on the agent are generally attracted to hydrophobic groups, such as aryl groups, affixed to beads placed within the column. A preferred HIC column material is phenyl-superose (Pharmacia, Sweden), a cross-linked polysaccharide which has been covalently modified to have pendant hydrophobic aryl groups. These pendant groups are similar to the hydrophobic or lipophilic species in the skin layers. Thus, this hydrophobic interaction column approximates, and is a good in vitro model for, an animal's skin layer as a barrier to transport of a polypeptide or protein. […]", "key": {"[1]": {"conditions": "pH 3.5, 10 mM sodium chloroacetate, TWEEN 20 0"}, "[2]": {"conditions": "pH 3.5, 10 mM sodium chloroacetate, TWEEN 20 1.5 mg/mL"}, "[3]": {"conditions": "pH 3.5, 10 mM sodium chloroacetate, TWEEN 20 2.66 mM"}, "[4]": {"conditions": "pH 3.5, 10 mM sodium chloroacetate, TWEEN 20 5.33 mM"}, "[5]": {"conditions": "pH 3.5, 10 mM sodium chloroacetate, TWEEN 20 6.66 mM"}, "[6]": {"conditions": "pH 3.5, 10 mM sodium chloroacetate, TWEEN 20 8.88 mM"}, "[7]": {"conditions": "pH 9.0, 10 mM sodium borate, TWEEN 20 0"}, "[8]": {"conditions": "pH 9.0, 10 mM sodium borate, TWEEN 20 1.5 mg/mL"}, "[9]": {"conditions": "pH 9.0, 10 mM sodium borate, TWEEN 20 2.66 mM"}, "[10]": {"conditions": "pH 9.0, 10 mM sodium borate, TWEEN 20 6.0 mg/mL"}, "[11]": {"conditions": "pH 9.0, 10 mM sodium borate, TWEEN 20 8.88 mM"}}, "data": [{"substance": "Insulinotropin: the protein insulinotropin", "values": [{"measurement": "HIC Retention Time", "setting": "[1]", "result": 57.6, "unit": "min"}, {"measurement": "HIC Retention Time", "setting": "[2]", "result": 25.6, "unit": "min"}, {"measurement": "HIC Retention Time", "setting": "[3]", "result": 11.5, "unit": "min"}, {"measurement": "HIC Retention Time", "setting": "[4]", "result": 6.1, "unit": "min"}, {"measurement": "HIC Retention Time", "setting": "[5]", "result": 6.0, "unit": "min"}, {"measurement": "HIC Retention Time", "setting": "[6]", "result": 4.4, "unit": "min"}, {"measurement": "HIC Retention Time, fractional change (% δ)", "setting": "[1]", "result": 0}, {"measurement": "HIC Retention Time, fractional change (% δ)", "setting": "[2]", "result": 0.60}, {"measurement": "HIC Retention Time, fractional change (% δ)", "setting": "[3]", "result": 0.87}, {"measurement": "HIC Retention Time, fractional change (% δ)", "setting": "[4]", "result": 0.97}, {"measurement": "HIC Retention Time, fractional change (% δ)", "setting": "[5]", "result": 0.97}, {"measurement": "HIC Retention Time, fractional change (% δ)", "setting": "[6]", "result": 1.00}, {"measurement": "HIC Retention Time", "setting": "[7]", "result": 10.1, "unit": "min"}, {"measurement": "HIC Retention Time", "setting": "[8]", "result": 9.4, "unit": "min"}, {"measurement": "HIC Retention Time", "setting": "[9]", "result": 6.4, "unit": "min"}, {"measurement": "HIC Retention Time", "setting": "[10]", "result": 4.8, "unit": "min"}, {"measurement": "HIC Retention Time", "setting": "[11]", "result": 3.8, "unit": "min"}, {"measurement": "HIC Retention Time, fractional change (% δ)", "setting": "[7]", "result": 0}, {"measurement": "HIC Retention Time, fractional change (% δ)", "setting": "[8]", "result": 0.11}, {"measurement": "HIC Retention Time, fractional change (% δ)", "setting": "[9]", "result": 0.59}, {"measurement": "HIC Retention Time, fractional change (% δ)", "setting": "[10]", "result": 0.84}, {"measurement": "HIC Retention Time, fractional change (% δ)", "setting": "[11]", "result": 1.00}]}, {"substance": "Salmon Calcitonin [reference compound]", "values": [{"measurement": "HIC Column Retention Time", "setting": "dodecyl sulfobetaine 0, calcitonin 0.076 mM", "result": 9.4, "unit": "min"}, {"measurement": "HIC Column Retention Time", "setting": "dodecyl sulfobetaine 0.83 mM, calcitonin 0.076 mM", "result": 12.4, "unit": "min"}, {"measurement": "HIC Column Retention Time", "setting": "dodecyl sulfobetaine 3.23 mM, calcitonin 0.074 mM", "result": 87.1, "unit": "min"}, {"measurement": "HIC Column Retention Time", "setting": "dodecyl sulfobetaine 6.25 mM, calcitonin 0.072 mM", "result": 64.1, "unit": "min"}, {"measurement": "HIC Column Retention Time", "setting": "dodecyl sulfobetaine 9.77 mM, calcitonin 0.069 mM", "result": 45.1, "unit": "min"}, {"measurement": "HIC Column Retention Time", "setting": "dodecyl sulfobetaine 18.4 mM, calcitonin 0.062 mM", "result": 28.8, "unit": "min"}, {"measurement": "HIC Column Retention Time", "setting": "dodecyl sulfobetaine 26.4 mM, calcitonin 0.056 mM", "result": 24.4, "unit": "min"}]}]}
